The RNAGym collection of RNA variant scans (doi:10.1073/pnas.2313332121)
This sample holds only a part of the variants without activity.

B1: TPR 5TU (parent)
chain: GGAUCUUCUCGAUCUAACAAAAAAGACAAAUCUGCCACAAAGCUUGAGAGCAUCUUCGGAUGCAGAGGCGGCAGCCUUCGGUGGCGCGAUAGCGCCAACGUUCUCAACUAUGACACGCAAAACGCGUGCUCCGUUGAAUGGAGUUUAUCAUG

Variants of: B1
Test: polymerase ribozyme fitness, log enrichment relative to wild type (log ratio); higher = more active; in vitro selection for triplet polymerase activity
Method in brief: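 Each subunit of a heterodimeric triplet polymerase ribozyme was represented by a PCR-built, transcribed mutant library that underwent triplicate single-round in vitro selection with frozen incubation at −7 °C. Extended constructs were recovered by gel excision, streptavidin-bead capture and RT-PCR, and Illumina sequencing of input and output libraries kept genotypes with ≥10 input reads and ≥1 read per output. Fitness is the logarithm of genotype enrichment relative to wild-type enrichment, from inverse-variance-weighted replicate averages, with a logarithm base of 2.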

Row | Variant | polymerase ribozyme fitness (log ratio)
1 | GGAUCUUCUCGGUCUAACUAAAAAGACAAAUCUGCCACAAAGCUAGAGAGCAACUUCGGAUGCAGAGGCGGCAGCCUUCGGUGGCGCUAUAGCGCCAACGUUCUCAACUAUGACACGCAAAACGCGUGCUCCGUUGAAUGGAGUUUAUCAUG [A12G A19U U45A U53A G88U] | ≤ -4.2
2 | GGAUCUUCUCGGUCUAACAAAAAAGACAUAACUGCCACAAAGCUUGAGAGCAUCUUCGGAUGCAGAUGCGGAAGCCUUCGGUGGCGCGAUAUCGCCAACGUUCUCAACUAUGACACGCAAAACGCGUGCUCCGUUGGAUGGAGUUUAUCAUG [A12G A29U U31A G67U C72A G92U A137G] | ≤ -4.2
3 | GGAUCUUCUCGGUCUUACAAAAAAGUCAAAUCUGCCACAAAGCUUGAGAGCAUCUUCGGAUGCAGAGGCGGCAGCCUUCGGUUGCGGGAUAGCGCCAACGUUCUCAACUAUGACACGCAAAACGCGUGCUCCGUUGAAUGGAGUCUAUCAUG [A12G A16U A26U G83U C87G U145C] | ≤ -4.2
4 | GGAUCUUCUCGGUCUAGCAAAAAAGACAAAUCUGCCACAAAGCUUGAGAGCAUCUUCGGAUGCAGAGGCGGCAGCCUUCGGUGGCGCGAUAGUGCCAACGUUCUCAACUAUGACACGCAGAACGCGUGCUCCGUUGAAUGGAGUUUAUCAUG [A12G A17G C93U A120G] | -0.897
5 | GGAUCUUCUCGGUCUAACAAACAAGACAAAUCUGCCACAAAGCUUGAGAGCAUCUUCGGAUGCAGUGGUGGCAGCCUUCGGUGGCGCGAUAACGCCAACGUUCUCAACUAUGACACGCAAAACGCGUGCUCCGUUGAAUGGAGUUUAUCAUG [A12G A22C A66U C69U G92A] | ≤ -4.2
6 | GGAUCUUCUCGGUCUAACAGAAAAGACAAAUCUGCCACAAAGCUUGAGAGCAUCUUCGGGUGCAGAGGCGGCAGCCUUCGGUGGCGCGAUAGCGCCAACGUUCUCAACUAUGACACGCAAAACGCGUGCUCCGUUGAAUGGAGUUUAUCAUG [A12G A20G A60G] | -0.113
7 | GGAUCUUCUCGGUCUAACAAAAAUGACAAAUCUGCCACAAAGCUUGAGAGCAUCUUCGGAUGCAGAGGCGGCAGCCUUCGGUGGCGUGAUAGCGCCAACGUUCUCAACUAUGACACGCAAAACGCGUGCUCCGUUGAAUGGAGUUUAUCAUG [A12G A24U C87U] | 0.648
8 | GGAUCUUCUCGGUCUAACAAAAAAGACAAAUCUGCCACAAAGCUUGAGAGCAUCUUCGGAUGCAGAGGCGGCAGCCUUCGGUGGCGCGAUAGCGCCAACGUUCUCAACUAUGACACGCAAAACGCGUGCUCCGUUGAAUGGAGUUUAUCAUG [A12G] | 0.116
9 | GGAUCUUCUCGCUCUAACAAAAAAGACAAAUCUGCCACAAAGCAUGAGAGCAUCUGCGGAUGCAGAGGCGGCAGCCUUCGGUUGCGCGUUAGCGACACCGUUGUCAGCUAUGACACGCAAAACGCGUGCUCCGUUGAAUGGAGUUUAUCAUG [A12C U44A U56G G83U A89U C95A A98C C103G A107G] | ≤ -4.2
10 | GGAUCUUCUCGGUCUAACAAAAAAGACAAUUCUGCCACAAAGCUUGAGAGCAUCUUCGGAUGCAGAGGCGGCAGCCUUCGGUGGCGCGAUAGCGCCAACGUUCUCAACUAUGACACGCAAAACGCGUGCUCCGUUGAAUGGAGUUGAUCAUG [A12G A30U U146G] | -3.66
11 | GGAUCUUCUCGGUCUAACAAUAAAGAAAAAUCUGCCACAAAGCUUGACCGAAUCUUCGGAUGCAGAGGCGGCAGCCUUCGGUGACGCGAUAGCGCCAACGUUCUCAACUAUGACACGCAAAACGCGUGAUCCGUUGAAUGGAGUUUAUCAUG [A12G A21U C27A G48C A49C C51A G84A C129A] | ≤ -4.2
12 | GGAUCUUCUCGGUCUAACAUAACAGACAAAUCUGCCACAAAGCUUGAGAGCAUCUUCGGAUGCAGAGGCGGCAGCCUUCGGUGGCGCGAUAGCGCCAACGUUCUCAACUAUGACACGCAAAACGCGUGCUCCGUUGAAUGUAGUUUAUCAUG [A12G A20U A23C G141U] | ≤ -4.2
13 | GGAUCUUCUCGGUCUAACAAAAAAGACAAAUCUGCCUCAAAGCUUGAGAGCAUCGUCGGAUGCAGAGGCGGCAGCCUUCGGUGGCGCGAUAGCGCCAACGUUCUCAACUAUGCCACGCAAAACGCGUGCUCCGUUGAAUGGAGUUUAUCAUG [A12G A37U U55G A113C] | ≤ -4.2
14 | GGAUCUUCUCGGUCUAACAAAAAAGACAAAUCUGCCGCAAAGCUUGAGAGCAUCUUCGGAUGCAGAGGCGGCAGCCUUCGGUGGCGUGAUAGCGCCAACGUUCUCAACGAUGACACGCAAAACGCGUGCUCCGUUGAAUGGAGCCUAUGAUG [A12G A37G C87U U109G U144C U145C C149G] | ≤ -4.2
15 | GGAUCUUCUCGGUCUAACAAAAAAGGCAAAUCUGCCACAAAGCUUGAGAGCAUCUUCGGAUGCAGAGGCGGCAGCCUUCGGUGGCGCGAUAGCCACAACGUUCUCAACUAUGACACGCAAAACGCGUGCUCCGUUGGAUGGAGUUUAUCAUG [A12G A26G G94C C95A A137G] | -4
16 | GGAUCUUCUCGCUCUAACAAAAAAGACAAAUCUGCCACAAAGCUUGAGAGCAUCUUCGGAUGCAGAGGCGGCAGCCUUCGGUGGCGCGAUAGCGCCAACGUUCUCAACUAUGACACGCAAAACGCGUGCUCCGUUGAAAGGAGUUUAUCAUG [A12C U139A] | ≤ -4.2
17 | GGAUCUUCUCGGUCUAACAGAAUAGACAAAUCUGCCACAAAGCUUGAGAGCAUCUUCGGAUGCAGAGGCGGCAGCCUUCGGUGGCGCGGUAGCGCUAACGUUCUCAACUACGACACGCAAAACCCGUGCGCCCUUGAAUAGAGUUUAUCAUG [A12G A20G A23U A89G C96U U111C G124C U130G G133C G140A] | ≤ -4.2
18 | GGAUCUUCUCGGUCUAACAUAAAAGACAUAUCUGCCACAAAGCUUGAGAGCAGCUUCGGAUGCAGCGGCGGCAGCCUUCGGUGGCGCGAUAGCGCCAACGUUCUCAACUAUGACACGCAAAACGCGUGCUCCGUUGAAUGGAGUUUAUCAUG [A12G A20U A29U U53G A66C] | -4.16
19 | GGAUCUUCUCGGUCUAACAAAAAAGACAUAUCUGCCACAAAGCCUGAGACCAUCUUCGGAUGCAGAGGCGGCAGCCUUCGGUGGCGCGAUCGGCCCAACGUUCUCAACUAUGACAUGCAAAACGCGUGCUCCGUUGAAUGGAGAUUAUCAUG [A12G A29U U44C G50C A91C C93G G94C C116U U144A] | ≤ -4.2
